Experiment: yeast display, Sf9 membrane polyspecificity reagent, FACS + sequencing; frameworks hold sequencing errors
Procedure, shortened: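 Galactose induction of a Saccharomyces cerevisiae BJ5465 synthetic nanobody display library ran 36–48 hours. The cells were then stained for 1 hour at 4 °C with 10% biotinylated, detergent-solubilized Sf9 membrane reagent, pulled down on streptavidin microbeads and FACS-sorted into low and high (top ~1%) gates on expression and reagent-binding fluorescence. Labels for polyreactivity follow the gate of origin.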

Sequence	polyreactivity (PSR sort gate)
QVQLVESGGGLVQAGGSLRLSCAASGYTFGTYDKGWYRQAPGKERELVAAISIGGSTNYADSVKGRFTISRDNAKNTVYLQMNSLKPEDTAVYYCAAEVNVGTLLLSVIVEDGDYWGQGTQVTVSS	low polyreactivity
QVQLVESGGGLVQAGGSLRLSCAASGLTFAYYVMGWYRQAPGKERELVATITRGGDTYYADSVKGRFTISRANAKNTVYVQMNSLTPEDTAVYYCNAVWRVKYRRGLDYWGQGTQVTVSS	high polyreactivity
QVQLVESGGGLVQAGGSLRLSCAASGRIINSNAMGWYRQAPGKERELVAAISTTGGRTYYADSVKGRFTISRDNAKNTVYLQMNSLKPEDTAVYYCNRLYRYLVWPAGEYDYWGQGTQVTVSS	high polyreactivity
QVQLVESGGGLVQAGGRLRLSCAASGSNFGSNAMGWYRQAPGKESEFVAVITCRVGDTYYADSVKGRFTISRDNAKNTVYLQMYSLKPEDTAVYYCNVDWKVYGAPDYRIAWKYDYWGQGTQVTVSS	low polyreactivity
QVQLEESGGCLVQAGGSLRLSCAASGFTFRSYAMGWYRQAPGKERELVAAISSGGSTYYADSVKGRFTISRDNAKITVYLKMNSLKPEDTAVYYCAARRYYGYGHWGQGTHVTVSS	high polyreactivity
QVQLVESGGGLVQAGGSLRLSCAASGRTFYVNAMGWYRQAPGKERELVAAISRSGRTNYADSVKGRFTISRDNAKNTVYLQMNSLKPEDTAVYYCAAALSNVRNVRSPYDYWGQGTQVTVSS	high polyreactivity
QVQLVESGGGLVQAGGSLRLSCAASGSTLDYYAIGWYRQAPGKEREFVAGIDSAGSTNYADSVKGRFTISRDNAKNTVYLQMNSLKTGRYRGLYCNVGKTITTYAFPTFDYWGQGTQVTVSS	low polyreactivity
QVQLVDSGGGLVQAGGSLRLSCAASGGLFIVNDMGWYIQAPGKEMELVAAITSGGGKNYADSVKGRFTISRDNAKNTVYLQMNSLKPEVTAVYYCARDTYRQIVSNESYGFWGHGTQVTVSS	low polyreactivity
QVQLVESGGGLVQAGGSLRLSCAASGSTFQDNAMGWYRQAPGKERELVAVITRTGGDTNYADSVKGRFTISRDNAKNTVYLQMNSLKPEDTAVYYCAADNVYVTWFYYWGQGTQVTVSS	low polyreactivity
QVQLVESGGGLVQAGGSLRLSCAASGRIFGQNVMGWYRQAPGKERELVAAITSAGRTYYADSVKGRFTISRDNAKNTVYLQMNSLKPEDTAVYYCAKVVSRKGYGYWGQGTQVTVSS	high polyreactivity
QVQLVESGGGLVQAGGSLRLSCAASGSTLSINAMGGYRQAAGKERELVAGITYSGGSEYYADSVKGRFSISRDNAKNNVYLQMNSMKPEDTAVYYCNKASGVYYGHLDYWRQGTQVTVSS	low polyreactivity
QVQLVESGGGLVQAGGSLRLSCAASGSIFYLYAMGWYRQAPGKERELVAAINFRGGSTYADSVKGRFTISRDNAKNTVYLQMNSLKPEDTAVYYCAAKADYRMNYWGQGTQVTVSS	high polyreactivity
QVQLVESGGGLVQAGGSLRLSCAASGFTFFSNAMGWYRQAPGKERELVASISASGSGTYYADSVKGRFTISRDNAKNTVYLQMNSLKPEDTAVYYCAAQYRVNARSGVYRGYRYNYWGQGTQVTVSS	high polyreactivity
QVQLVDSGGGLVQAGGSLRLSCAASGSIFGSNAMGWYRQAPGKERELVAAITWSDGSTYYADSVKGRFTISRDNAKNTVYLQMNSLKPEDTAVYYCATDYGYSWYDYWGQGTQVTVSS	low polyreactivity
QVQLVESGGGLVHAGGSLRLSCAASGIIFSWYAMGWYRQAPGKERELVAAITSDGNTYYADSVKGRFTISRDNAKNTVYLQMNSLKPEDTAVYYCIARTYVRRPLGYWGQGWQVTVSS	high polyreactivity
QVQLVESGGGLVQAGGSLRLSCAASVSIFYEYTMGWYRQAPGKERELVADITEGDGITYYADSVKGRFTISRDNAKNTVYLQMNSLKPEDTAVYYCNADVVQAVTTHYDYWGQGTQVTVSS	low polyreactivity

Sequence	polyreactivity (PSR sort gate)
QVHLVESGGGLDQARGSHRLSCAASGYTIPTYAMGWYRHAPGKERELVAAINWSGSRTYYADSVKGRFTISRDNAKNTVYLQMNSVKPEDTAFYYCAAYAYRVGPIRRHDYWGQGTQVTVSS	high polyreactivity
QVQLVESGGGLVQARGSLRLSCASSGITFWKYTMGCYRQAPGKESELVASIRIGGSTYYADSVKGRFTISRDNAKNTVYLQMNSLKPEDTAVYYCAAKGIYGLQGSPRSGYYYWGQGTQVTVSS	high polyreactivity
QVHLVESGGGLVQAGGSLRLSCAASGFIRNYAMGWYRQAPGKERELVAAITSSGGRTYYADSVKGRFTISRDNAKNRVYLQMNSLKPEDTAVYYCAAPSRITTGPHREYDYWGQGTLVTVSS	high polyreactivity
QVQLVESGGGLVQAGGSLRLSCAASGSTFPGNAMGWYRQAPGKERELVASIRRSGGSTYYADSVKGRFTISRDNAKNTVYLQMNSLKPEDTAVYYCAKRTFLVSGPRSYGCYGVYYWGQGTQVTVSS	high polyreactivity
QVQLVESGGGLVQAGGSLRLSCAASGSIFRGNAMGWYRQATGKERELVAAITSRASSTYYADSVKGRFTLSRDNAKNTVYLQMNSLKPEDTAVYYCAAKWVRSYYTFDHWGQGTQVTVSS	high polyreactivity
QVQLLESGGGLVQAGGSLRLSCAPSGFTFLYYAMGWYIQAPGKERELVAVISRSGGRTYYADSVKGRFTISRDNAKNTVYLLMNSLKPEDTAVYYCAAALGVALNDYWGQGTQVNVSS	high polyreactivity
QVQLVESGGGLVLAGGSLRLSCAASGITFKWYAMGWYRQAPGKERELVAAITSGGGTNYADSVKGRFTISRDNAKNTVYLQMNSLKPEDTAVYYCAARFYQLPWRRYDYWGQGTQVTVSS	high polyreactivity
QVQLVESGGGLVQSGGSLRLSCAASGFTFSWYAMGSYRQAPGKERELVAAISWDGDSTYYADSVKGRCTISRDNAKNTVFLQMNSLKPEETAVYYCAADFSYYWDGYDYWGQGSQVTVSS	high polyreactivity
QVQLVESGGGLVQAGGSLRLSCAASGSIFDSNAMGWYRQAPGKERELVAAITGSGTSTYDADSVKGRFTISRDNAKNTVYLQMNSLKPEDTAVYYCAAAPEYLTDHDYWGQGTQVTVSS	low polyreactivity
QVQLVESGGGLVQAGGSLRLSGAASGSIFSVYAMGWYRQAPGKERELVASISRSGGSTYYADSVKGRFTISRDNAKNTVYLQMNSLKPEDTAVYYCAAYHPIQEYDYWGQGTQVTVSS	high polyreactivity
QVQLVESGGGLDQAGGSLRLSCAASGYIVRNAMGWYRQAPWKERELVAAISRRGGSTYYADSVKGRFTISRDNAKNTVYLQMNSLKPEDTAVYYCAKDNVIPSFVADYYYWGQGTQVTVSS	high polyreactivity
QVQLVESGGGLVQAGGSLRLSCAASGSIFPYYAMGWYRPAPGKERELVAAISSGGSTNYADSVKGRFTISRDNAKNTVYLEMNSLKPEDTAVYYCAARWSRLFRHRVNYWYDYWGQGTQVTVSS	high polyreactivity
QVQLVESGGGLVQAGGSLRLSCAASGRIFSAYAMGGYRQAPGKGRELVAAISYSGGSTYYADSVKGRFTISRDNAKNTVYLQMNSLKPEDTAVYYCAASGPRWWRFGYWGQGTQVTVSS	low polyreactivity
QVQLVESRGGLVQAGGSLRLSCAASGSIFNYNAMGCYRQAPGKEREFVAAINQGGTSTYYADSVKGRFTISRDNANHTVYLQMNSLKPEDTAVYYCAALITVYRGSYEYCGQGTQVTVSS	low polyreactivity
QVTLVESGGGLVQAGGSLRLSCAASVLIFYSYAMGWYRQAPGKERELVAAISSGTRTYYADSVKGRFTISRDNAKNTVYLQMNSLKPEDTAVYYCAAVDAHKKRYPPSGRLYGYWGHGTQVTVSS	high polyreactivity
